Reference: the supplement of paper PMC12764529
± gives the half width of the 95% confidence interval.

Columns and labels:
[1] = folding stability dG unfold (combined trypsin and chymotrypsin); higher = more stable
In short: (§1)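 Designed mini-proteins (under 80 residues, no cysteine) in a PA-tagged cDNA display construct were digested with trypsin and chymotrypsin. Each protease was used at 11 concentrations (threefold dilutions) plus a no-protease condition, followed by sequencing. K50 was inferred by Bayesian fitting of sequencing counts, and unfolding free energy was derived against a sequence-predicted unfolded-state K50 and a shared folded-state K50, per protease or combined. Only designs with AlphaFold2 dimer inter-PAE above 15 were kept.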

[2] = folding stability dG unfold from trypsin proteolysis; higher = more stable
In short: as §1

[3] = folding stability dG unfold from chymotrypsin proteolysis; higher = more stable
In short: as §1

| Sequence | folding stability dG unfold [1] [kcal/mol] | folding stability dG unfold [2] [kcal/mol] | folding stability dG unfold [3] [kcal/mol] |
| --- | --- | --- | --- |
| SAGGSAGGSAGGEMRLRISWNHPNGQPQVIEFPVGDIKEFLKKLGIDNIPPDKLTNIEPYSAGGSAGGSAGG [r7_745_TrROS] | 1.36 ± 0.094 | 1.25 ± 0.039 | 1.37 ± 0.092 |
| SAGGSAGGSAGGENPVDFKARVELLSGVVELTYTNEDGEPTTTLEEVVALKIEIEPSNNSAGGSAGGSAGGS [r10_1212_TrMRF] | 1.65 ± 0.073 | 1.23 ± 0.046 | 1.81 ± 0.062 |
| SAGGSAGGSAGGEPEVEITIEVEERDGELVVRVTARFKDTDETITVEMTLEEVEALLKASAGGSAGGSAGGS [r10_1187_TrROS_Hall] | 2.37 ± 0.077 | 2.54 ± 0.061 | 2.17 ± 0.061 |
| SAGGSAGGSAGGERVLVMVFKFDPEDNDMKIKDVVTFPNPEEAREEAEKDGYMVMVIPLSAGGSAGGSAGGS [r10_657_TrROS] | 1.47 ± 0.2 | 0.995 ± 0.048 | 1.85 ± 0.12 |
| SAGGSAGGSAGGETVTIVDKKTNKTITYNKETNEFTITTKNGKKKTIKVDSPEEALKALSAGGSAGGSAGGS [r10_849_TrROS_Hall] | 0.89 ± 0.12 | 0.964 ± 0.02 | 0.731 ± 0.1 |
| SAGGSAGGSAGGEVKILRVEEFEDGVVRVFVEGDDPVLVIELGPDGVILSIEEVDSSELSAGGSAGGSAGGS [r10_211_TrMRF] | 0.781 ± 0.085 | 1.04 ± 0.044 | 0.562 ± 0.034 |
| SAGGSAGGSAGGEVVVVPLPDGSYVVALPDGTVVVYNPETGRWEERRSEDVVIAPGRPDESAGGSAGGSAGG [r7_656_TrMRF] | 2.4 ± 0.03 | 2.09 ± 0.061 | 2.51 ± 0.031 |
| SAGGSAGGSAGGEYEIVKIEKVKNENGELYYKMIIKDKKTNKEIEIYMSLEELKKLKPKSAGGSAGGSAGGS [r10_326_TrROS_Hall] | 3.24 ± 0.18 | 2.05 ± 0.047 | 3.85 ± 0.16 |
| SAGGSAGGSAGGFIARIEYPDGNTRTINPGMSLDELRNLPPDQIRRVEVEPVPPVPDDEKSAGGSAGGSAGG [r7_190_TrROS] | 0.499 ± 0.079 | -0.225 ± 0.12 | 0.723 ± 0.023 |
| SAGGSAGGSAGGFNIKLDVEIDPENYVIKNKLEVRDGGEERRFEMWIPIRVPPADPDDPSAGGSAGGSAGGS [r10_1049_TrROS] | 0.852 ± 0.21 | -0.135 ± 0.29 | 1.39 ± 0.27 |
| SAGGSAGGSAGGFYDPNGKWRIKIKPEVFEFPNYRFIKMKIEVDGRPIMEMPMLIPPNDSAGGSAGGSAGGS [r10_628_TrROS] | 2.73 ± 0.34 | 3.41 ± 0.31 | 2.45 ± 0.16 |
| SAGGSAGGSAGGGELKYRTLTVDLPVDDPDGRKLPRRLVITFPASNPELAEAFLKALGYSAGGSAGGSAGGS [r10_1062_TrMRF] | 1.52 ± 0.034 | 1.11 ± 0.012 | 1.75 ± 0.021 |
| SAGGSAGGSAGGGFYVKEIKGVKFGDKTLYIIRVYDDKGNEVFDVVAPPEVLKNLPPEVLSAGGSAGGSAGG [r7_263_TrMRF] | 1.52 ± 0.045 | 1.04 ± 0.015 | 1.79 ± 0.037 |
| SAGGSAGGSAGGGKVTAVVTFTGPDGSKVVLAFHPDGSVTVRYFDPNGELVGEKTFAGAGSAGGSAGGSAGG [r7_544_TrMRF] | 4.27 ± 0.14 | 3.2 ± 0.19 | 4.56 ± 0.1 |
| SAGGSAGGSAGGGLASEPVEIVEILSVTLVPEANVEVVTVKLPNPGELVTVPASAVPPGLSAGGSAGGSAGG [r7_304_JUSTAS] | 1.69 ± 0.085 | 2.07 ± 0.13 | 1.16 ± 0.048 |
| SAGGSAGGSAGGGMPSVTVTPVTLTVPTEVLVDGGPLLREREVRLTVITYPYTNTVVVDSAGGSAGGSAGGS [r10_533_JUSTAS] | 0.23 ± 0.099 | -0.474 ± 0.2 | 0.494 ± 0.16 |
| SAGGSAGGSAGGGMRTVTTVSSFTFEKNGGEKFVTTTVVVPLYVPPRVFPPPENIELLLLSAGGSAGGSAGG [r17_454_JUSTAS] | 1.61 ± 0.26 | 2.45 ± 0.33 | 1.36 ± 0.27 |
| SAGGSAGGSAGGGMSIEEVKAKIEEEVGVEVSIEKVSGNTYKITLPKNNETYTIKIPKKSAGGSAGGSAGGS [r10_1032_JUSTAS] | 0.373 ± 0.25 | 0.396 ± 0.062 | -0.126 ± 0.3 |
| SAGGSAGGSAGGGMTTTTETTTTTFPTNNLTTTTTTTTTLETSTGTTLSSTSTTTVTASSAGGSAGGSAGGS [r10_469_JUSTAS] | 1.2 ± 0.072 | 1.96 ± 0.18 | 0.234 ± 0.12 |
| SAGGSAGGSAGGGMVLKTEPVVITSTSTAPTEDGKWITTTSTLVVTKELILPSTLPGLLSAGGSAGGSAGGS [r10_1133_JUSTAS] | 0.34 ± 0.096 | 0.173 ± 0.028 | 0.276 ± 0.11 |
| SAGGSAGGSAGGGNMTITVMIPIEIPVFKYDGGKPEFEPFPIYIMVEVTVPEGAPLEEFSAGGSAGGSAGGS [r10_633_TrROS] | 1.79 ± 0.068 | 2.1 ± 0.076 | 1.49 ± 0.027 |

| Sequence | folding stability dG unfold [1] [kcal/mol] | folding stability dG unfold [2] [kcal/mol] | folding stability dG unfold [3] [kcal/mol] |
| --- | --- | --- | --- |
| SAGGSAGGSAGGGNPFLVRTEFFTLPDNTVIRRLAVVHSDGSLSVFPSLLPVPPNSLKLSAGGSAGGSAGGS [r10_280_TrMRF] | 0.914 ± 0.053 | 0.412 ± 0.041 | 1.18 ± 0.087 |
| SAGGSAGGSAGGGRRLVLVKVPPDVPEEVIREFARRLVEEGVPEPVVVERLEDDYALVLVSAGGSAGGSAGG [r7_283_TrMRF] | 1.01 ± 0.17 | 0.861 ± 0.21 | 1.23 ± 0.24 |
| SAGGSAGGSAGGGRTYTFTLPDGTVLTVTADDMTEEEIRAKLEAEGGEIVEITVEPGLSSAGGSAGGSAGGS [r10_572_JUSTAS] | 2.86 ± 0.07 | 2.43 ± 0.034 | 2.991 ± 0.018 |
| SAGGSAGGSAGGGSIVIENPEKGLTLTYDPATGNVTITFPGGERKVSPVGSIEKAKELLSAGGSAGGSAGGS [r10_849_JUSTAS] | 1.02 ± 0.06 | 0.787 ± 0.059 | 1.15 ± 0.028 |
| SAGGSAGGSAGGGSMPLLTETRKSLVVDPETGRLREVTTTTIRFPDRNTSQVTTTVTPVSSAGGSAGGSAGG [r7_196_JUSTAS] | 0.41 ± 0.14 | 0.771 ± 0.063 | 0.139 ± 0.081 |
| SAGGSAGGSAGGGSMPVKEEVIVEVDPTEVPVTLVTTTVVKTYPDGSVEETVTVEVKLVSAGGSAGGSAGGS [r10_598_JUSTAS] | 0.777 ± 0.18 | 0.818 ± 0.085 | 0.281 ± 0.059 |
| SAGGSAGGSAGGGSVSGSTPLTLPDSPVTRYSYPDSLVTFVPEKGVVITVSGSSTTVALSAGGSAGGSAGGS [r10_559_JUSTAS] | 0.654 ± 0.11 | 0.825 ± 0.03 | 0.44 ± 0.077 |
| SAGGSAGGSAGGGSVTLKRPGGSEVTLPDVTADSTITTLPDGTTVVTIPGTGKTYVVPSSAGGSAGGSAGGS [r10_1035_JUSTAS] | 0.495 ± 0.093 | 0.604 ± 0.03 | 0.111 ± 0.2 |
| SAGGSAGGSAGGGWIYMVTIEPKEVKRSPDPGGKGRPTFEFEMDITIIWIRVDPEDLDDSAGGSAGGSAGGS [r10_654_TrROS] | 3.76 ± 0.15 | 2.85 ± 0.13 | 4.14 ± 0.073 |
| SAGGSAGGSAGGGYTLVTVTLRSPTPTEEVVEEKYPPSVPLEEVKAKYEPLGWEVSFDLLSAGGSAGGSAGG [r7_226_JUSTAS] | 0.832 ± 0.061 | 0.936 ± 0.025 | 0.422 ± 0.13 |
| SAGGSAGGSAGGHKIDIEWERYEDGMYRVTITIRSNNGPRKIPFWVPPGYETADDILKQISAGGSAGGSAGG [r7_75_TrROS] | 1.88 ± 0.18 | 1.8 ± 0.075 | 1.71 ± 0.066 |
| SAGGSAGGSAGGIDFPEKGFVVVVTFPDGSKAEFEVPSDRPLVLNETAGDVTVDEIREKDSAGGSAGGSAGG [r7_542_TrMRF] | 0.458 ± 0.13 | 0.955 ± 0.14 | -0.125 ± 0.18 |
| SAGGSAGGSAGGIEIRGPNGAELKIESDPDWGMVSIEMPGNRQEIQIPIPLPKPDPEDKNSAGGSAGGSAGG [r7_383_TrROS] | 0.568 ± 0.072 | 0.838 ± 0.038 | 0.22 ± 0.031 |
| SAGGSAGGSAGGIHIPAYEAIDFAKENADNGEPVPIEVHNPGNGKPEEREITPDDLDKISAGGSAGGSAGGS [r10_779_TrROS] | 0.454 ± 0.06 | 0.402 ± 0.039 | 0.428 ± 0.016 |
| SAGGSAGGSAGGIKIERDPNYWVIEIEIPIYMPQPDPDGEIKEPKPIAPITITILIPPGGSAGGSAGGSAGG [r7_3_TrROS] | 2.21 ± 0.2 | 2.09 ± 0.17 | 2.22 ± 0.11 |
| SAGGSAGGSAGGIPPDVKVKPVATVNLTAEVEVTVLGPEGGPTFTVKVEVKVVFAESTDSAGGSAGGSAGGS [r10_758_TrMRF] | 2.11 ± 0.26 | 1.51 ± 0.37 | 2.57 ± 0.24 |
| SAGGSAGGSAGGITLEEILKLIKDQPPGETRMIRLPGNGYTIQIYYEDNQLEIDIEPVKDSAGGSAGGSAGG [r7_448_TrROS] | 1.41 ± 0.078 | 1.06 ± 0.029 | 1.57 ± 0.032 |
| SAGGSAGGSAGGKAKIEMESETIPFKNDDGEKYYIQIMRFEVEVGGKKVTATAISIMPLDSAGGSAGGSAGG [r7_248_TrROS] | 2.98 ± 0.4 | 2.22 ± 0.22 | 3.53 ± 0.16 |
| SAGGSAGGSAGGKEPKKVKVYLFNENGELIGVFELEVETLEELEEAVRKLGFLAVVEPESAGGSAGGSAGGS [r10_958_TrMRF] | 4.4 ± 0.077 | 4.14 ± 0.096 | 4.43 ± 0.069 |
| SAGGSAGGSAGGKEYEVIEVEVNMTIEELKKLFPNVVEIKVEKNENGELKVTIIIKKDKSAGGSAGGSAGGS [r10_764_TrROS_Hall] | 2.31 ± 0.12 | 1.92 ± 0.08 | 2.5 ± 0.11 |
| SAGGSAGGSAGGKEYKVVEFEVLLEDPEPVKAVALIDPDGPVRVFLGDKVYTFKRDELGSAGGSAGGSAGGS [r10_649_TrMRF] | 0.766 ± 0.073 | -0.081 ± 0.071 | 1.13 ± 0.13 |
